“Also recorded” adds a separate entry of the source.

The source of these data is patent US20130189747A1, “Compositions Comprising A Polypeptide Having Cellulolytic Enhancing Activity And A Sulfur-Containing Compound And Uses Thereof” (priority 2010, published 2013).

Type in all cases: biochemical
Data set [1] concerns Trichoderma reesei cellulase composition. In words: Hydrolysis of AVICEL® (microcrystalline cellulose) by the Trichoderma reesei cellulase composition with/without GH61 polypeptide and sulfur-containing compound. On the procedure:
(§1) The effect of various sulfur-containing compounds on the cellulolytic enhancing activity of GH61 polypeptides was evaluated according to the procedures described below.

Data set [2] shares this test system. In words: Hydrolysis of milled unwashed pretreated corn stover (PCS) by the Trichoderma reesei cellulase composition with/without GH61 polypeptide and sulfur-containing compound. The following applies: for Enhancement of hydrolysis of milled unwashed PCS by the GH61 polypeptide: no sulfur-containing compound. On the procedure: as §1
The test system is the same in data set [3]. In words: Hydrolysis of milled washed pretreated corn stover (PCS) by the Trichoderma reesei cellulase composition with/without GH61 polypeptide and sulfur-containing compound. The following applies: for Enhancement of hydrolysis of milled washed PCS by the GH61 polypeptide: no sulfur-containing compound; for GH61 effect (Equation 4): in the absence of L-cysteine (Example 4); for Percent conversion of milled washed PCS: no L-cysteine. On the procedure: as §1

B1: T. aurantiacus GH61A polypeptide: GH61A polypeptide having cellulolytic enhancing activity (SEQ ID NO: 14), recombinantly prepared in Aspergillus oryzae JaL250 (protein, listed as Thermoascus aurantiacus)
chain: MSFSKIIATAGVLASASLVAGHGFVQNIVIDGKYYGGYLVNQYPYMSNPPEVIAWSTTATDLGFVDGTGYQTPDIICHRGAKPGALTAPVSPGGTVELQWTPWPDSHHGPVINYLAPCNGDCSTVDKTQLEFFKIAESGLINDDNPPGIWASDNLIAANNSWTVTIPTTIAPGNYVLRHEIIALHSAQNQDGAQNYPQCINLQVTGGGSDNPAGTLGTALYHDTDPGILINIYQKLSSYIIPGPPLYTG
As for B1, the “GH61 effect (Equation 4)” value in data set [1] (AVICEL®, day 1, in the absence of L-cysteine, all GH61 concentrations tested (5.6, 14, 28 mg per liter), FIG. 3B) is 1; in data set [2] (milled unwashed PCS, 7 days, in the absence of L-cysteine (Example 4)), 1.19±0.08; in data set [3] (PCS, 3 days), 1.31±0.030; in data set [3] (milled washed PCS, 7 days), “approximately 1.31±0.03”. Besides, the “GH61 polypeptide concentration at which the GH61 effect was maximal” value in data set [1] (AVICEL®, day 1, intermediate L-cysteine concentrations, FIG. 3B) is on record as “approximately 15 mg per liter”. In data set [1] (in the absence of a sulfur-containing compound), the “Effect of the GH61 polypeptide on hydrolysis of AVICEL® (microcrystalline cellulose) by the T. reesei cellulase composition” value is listed as “did not enhance; also recorded: no detectable effect”. The figures for the “Enhancement of hydrolysis of milled unwashed PCS by the GH61 polypeptide” value in data set [2] (1 day), in data set [2] (3 days) and in data set [2] (7 days) were 19%, 21% and 19%, respectively. For the same molecule, the results for the “Enhancement of hydrolysis of milled washed PCS by the GH61 polypeptide” value in data set [3] (1 day), in data set [3] (3 days) and in data set [3] (7 days) were 14%, 31% and 31%, respectively. Moreover, the “Percent conversion of milled washed PCS” value in data set [3] (day 1, GH61 polypeptide at 10% (w/w) of the cellulase composition (2 mg per g cellulose)) is given as 27±0.8%; in data set [3] (day 1, GH61 polypeptide at 25% (w/w) of the cellulase composition (2 mg per g cellulose)) it was 27±0.8%; in data set [3] (day 1, GH61 polypeptide at 50% (w/w) of the cellulase composition (2 mg per g cellulose)), 27±0.8%; in data set [3] (day 3, GH61 polypeptide at 10% (w/w) of the cellulase composition (2 mg per g cellulose)) it was 55±3%; in data set [3] (day 3, GH61 polypeptide at 25% (w/w) of the cellulase composition (2 mg per g cellulose)), 57±0.5%; in data set [3] (day 3, GH61 polypeptide at 50% (w/w) of the cellulase composition (2 mg per g cellulose)) it was 59±2%.
